Here are results for two substances from publication PMC12432404.

This test deals with α‐synuclein (UniProt P37840).

Chain of HspA8 (P11142 whole entry): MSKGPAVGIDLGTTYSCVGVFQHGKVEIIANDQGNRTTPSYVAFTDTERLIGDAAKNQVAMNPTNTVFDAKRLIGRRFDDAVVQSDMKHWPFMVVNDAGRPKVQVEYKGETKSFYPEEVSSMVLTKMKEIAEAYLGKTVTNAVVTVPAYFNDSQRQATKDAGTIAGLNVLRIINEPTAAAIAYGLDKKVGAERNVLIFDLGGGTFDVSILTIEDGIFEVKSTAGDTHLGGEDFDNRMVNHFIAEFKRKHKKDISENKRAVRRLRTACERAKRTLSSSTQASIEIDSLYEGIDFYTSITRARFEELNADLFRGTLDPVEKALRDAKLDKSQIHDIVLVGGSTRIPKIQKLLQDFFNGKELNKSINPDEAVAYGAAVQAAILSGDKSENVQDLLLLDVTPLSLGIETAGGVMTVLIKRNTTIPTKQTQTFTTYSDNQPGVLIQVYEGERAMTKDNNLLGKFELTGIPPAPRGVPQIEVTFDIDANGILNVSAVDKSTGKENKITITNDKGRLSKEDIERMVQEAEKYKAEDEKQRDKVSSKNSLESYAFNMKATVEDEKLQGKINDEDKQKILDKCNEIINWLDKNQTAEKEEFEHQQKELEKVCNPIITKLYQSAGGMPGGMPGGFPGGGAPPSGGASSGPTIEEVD
Chain of DNAJB1 (P25685 whole entry): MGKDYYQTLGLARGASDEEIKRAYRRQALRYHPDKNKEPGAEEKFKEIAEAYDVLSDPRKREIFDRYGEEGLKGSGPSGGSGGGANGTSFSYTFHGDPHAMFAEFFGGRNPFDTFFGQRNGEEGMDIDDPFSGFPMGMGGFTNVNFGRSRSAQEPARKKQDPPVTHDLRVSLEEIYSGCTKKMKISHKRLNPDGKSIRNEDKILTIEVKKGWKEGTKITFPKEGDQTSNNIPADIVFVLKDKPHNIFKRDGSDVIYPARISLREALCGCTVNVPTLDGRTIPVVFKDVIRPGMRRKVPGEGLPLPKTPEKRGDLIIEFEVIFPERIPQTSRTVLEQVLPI

Turning to “DNAJB1 (from UniProt P25685 1-340) (natural protein)”, the Thioflavin‐T fluorescence: elongation of α‐synuclein seeds (2 μM) by monomeric α‐synuclein (0–20 μM) with and without the Hsp70 chaperones (2 μM HspA8, 1 μM DNAJB1, 0.2 μM Hsp110), 30°C is 3 fold. Consider “HspA8 (from UniProt P11142 1-646) (natural protein)”, for which the Thioflavin‐T fluorescence: elongation of α‐synuclein seeds (2 μM) by monomeric α‐synuclein (0–20 μM) with and without the Hsp70 chaperones (2 μM HspA8, 1 μM DNAJB1, 0.2 μM Hsp110), 30°C was 3 fold.
